# Laboratory results: the Human Domainome abundance scans (Beltran et al. 2025)
# ± gives the uncertainty stated by the source.
# B1: Histone H1t, residues 44 to 112; numbered along this chain, P22492 (parent)
# chain: VSKLITEALSVSQERVGMSLVALKKALAAAGYDVEKNNSRIKLSLKSLVNKGILVQTRGTGASGSFKLS
# Variants of: B1
# Assay: abundance fitness (aPCA) (normalised: wild type 0, dead -1); higher = more abundant; growth selection in yeast, the domain comes from the species named
# Conditions: Homo sapiens
row,Variant,abundance fitness
1,S63D,0.029 ± 0.08
2,S63Y,-0.204 ± 0.06
3,S63T,0.004 ± 0.039
4,S63K,-0.019 ± 0.043
5,S63F,-0.028 ± 0.051
6,S63I,-0.045 ± 0.057
7,S63C,-0.54 ± 0.21
8,S63H,0.025 ± 0.058
9,S63P,-0.027 ± 0.033
10,S63E,0.152 ± 0.063
11,S63G,0.085 ± 0.044
12,S63L,0.006 ± 0.028
13,S63R,-0.133 ± 0.044
14,S63N,-0.113 ± 0.083
15,S63Q,0.057 ± 0.04
16,S63V,-0.006 ± 0.046
17,S65T,0.062 ± 0.03
18,S65G,-0.003 ± 0.039
19,S65Q,0.039 ± 0.031
20,S65R,-0.285 ± 0.03
21,S65N,0.008 ± 0.073
22,S65E,0.175 ± 0.053
23,S65A,0.031 ± 0.046
24,S65H,-0.084 ± 0.08

row,Variant,abundance fitness
1,S65F,-0.146 ± 0.17
2,S65K,-0.049 ± 0.029
3,G64R,-0.026 ± 0.039
4,G64Y,-0.051 ± 0.081
5,G64E,0.054 ± 0.14
6,G64Q,0.085 ± 0.055
7,G64I,0.103 ± 0.12
8,G64V,0.154 ± 0.054
9,G64F,-0.067 ± 0.057
10,G64S,0.046 ± 0.03
11,G64D,-0.013 ± 0.21
12,G64A,0.196 ± 0.051
13,G64P,0.168 ± 0.03
14,G64K,0.031 ± 0.069
15,G64T,0.11 ± 0.04
16,G64H,-0.209 ± 0.088
17,G64L,0.05 ± 0.031
18,G64W,-0.097 ± 0.039
19,G64N,-0.373 ± 0.29
20,G64C,0.275 ± 0.063
21,G64M,0.165 ± 0.043
22,A62H,-0.054 ± 0.042
23,A62D,0.008 ± 0.11
24,A62G,0.104 ± 0.03

row,Variant,abundance fitness
1,A62R,-0.072 ± 0.028
2,A62K,0.054 ± 0.026
3,A62N,0.073 ± 0.045
4,A62Q,0.021 ± 0.025
5,A62E,0.133 ± 0.037
6,A62T,-0.006 ± 0.026
7,A62P,-0.013 ± 0.026
8,T57L,-0.026 ± 0.026
9,T57Q,-0.013 ± 0.032
10,T57V,-0.052 ± 0.044
11,T57K,-0.011 ± 0.045
12,T57S,-0.039 ± 0.033
13,T57W,-0.252 ± 0.049
14,T57G,-0.102 ± 0.063
15,T57Y,-0.133 ± 0.059
16,T57M,-0.048 ± 0.034
17,T57C,-0.019 ± 0.047
18,T57H,-0.001 ± 0.041
19,T57A,0.024 ± 0.044
20,T57I,-0.147 ± 0.049
21,T57P,-0.061 ± 0.03
22,T57F,-0.14 ± 0.04
23,T57E,0.117 ± 0.084
24,T57R,-0.036 ± 0.032

row,Variant,abundance fitness
1,T57N,-0.058 ± 0.057
2,R58S,0.103 ± 0.035
3,R58M,-0.077 ± 0.048
4,R58L,-0.073 ± 0.031
5,R58N,0.227 ± 0.074
6,R58K,0.155 ± 0.048
7,R58F,-0.115 ± 0.068
8,R58Y,-0.246 ± 0.076
9,R58G,0.205 ± 0.03
10,R58A,0.078 ± 0.031
11,R58H,-0.041 ± 0.065
12,R58D,0.022 ± 0.052
13,R58Q,0.036 ± 0.038
14,R58P,-0.02 ± 0.034
15,R58E,0.028 ± 0.04
16,R58C,-0.121 ± 0.057
17,R58I,-0.09 ± 0.08
18,R58V,-0.089 ± 0.034
19,R58W,-0.151 ± 0.042
20,T60M,0.062 ± 0.04
21,T60E,-0.012 ± 0.074
22,T60W,-0.123 ± 0.085
23,T60Y,-0.218 ± 0.047
24,T60K,0.013 ± 0.043

row,Variant,abundance fitness
1,T60D,0.133 ± 0.078
2,T60R,-0.126 ± 0.045
3,T60I,-0.115 ± 0.059
4,T60Q,-0.02 ± 0.037
5,T60V,-0.038 ± 0.055
6,T60P,0.025 ± 0.029
7,T60C,-0.042 ± 0.082
8,T60L,-0.102 ± 0.031
9,T60G,-0.033 ± 0.044
10,T60H,-0.076 ± 0.05
11,T60N,-0.036 ± 0.051
12,T60A,0.074 ± 0.042
13,T60F,-0.236 ± 0.056
14,G61N,0.055 ± 0.092
15,G61Y,-0.218 ± 0.078
16,G61R,-0.188 ± 0.031
17,G61W,-0.176 ± 0.042
18,G61A,-0.103 ± 0.037
19,G61S,-0.07 ± 0.037
20,G61P,-0.144 ± 0.036
21,G61D,0.082 ± 0.12
22,G61E,-0.032 ± 0.064
23,G61K,0.023 ± 0.052
24,G61L,-0.182 ± 0.035

row,Variant,abundance fitness
1,G61M,-0.213 ± 0.048
2,G61T,-0.044 ± 0.039
3,G61C,-0.018 ± 0.054
4,G61H,-0.006 ± 0.063
5,G61Q,-0.081 ± 0.043
6,G61I,-0.171 ± 0.077
7,G61F,-0.16 ± 0.085
8,G61V,-0.185 ± 0.042
9,F66E,-0.03 ± 0.063
10,F66L,-0.097 ± 0.028
11,F66R,-0.084 ± 0.04
12,F66A,0.008 ± 0.041
13,F66I,-0.246 ± 0.065
14,F66D,0.053 ± 0.12
15,F66P,-0.112 ± 0.033
16,F66K,-0.042 ± 0.044
17,F66N,-0.119 ± 0.079
18,F66M,-0.173 ± 0.039
19,F66Q,-0.072 ± 0.043
20,F66G,-0.127 ± 0.064
21,F66H,-0.289 ± 0.069
22,G59E,-0.086 ± 0.053
23,G59S,-0.113 ± 0.033
24,G59I,0.119 ± 0.07

row,Variant,abundance fitness
1,G59V,-0.09 ± 0.04
2,G59R,-0.146 ± 0.033
3,G59H,-0.13 ± 0.049
4,G59K,0.001 ± 0.046
5,G59P,-0.138 ± 0.03
6,G59M,-0.152 ± 0.042
7,G59F,-0.074 ± 0.058
8,G59D,0.025 ± 0.078
9,G59Y,-0.222 ± 0.064
10,G59Q,-0.079 ± 0.036
11,G59A,-0.148 ± 0.04
12,G59N,-0.186 ± 0.091
13,G59C,-0.015 ± 0.068
14,G59L,-0.049 ± 0.028
15,V55Y,-0.15 ± 0.059
16,V55W,-0.297 ± 0.063
17,Q56K,0.083 ± 0.029
18,Q56P,-0.026 ± 0.03
19,Q56R,-0.031 ± 0.034
20,Q56E,0.127 ± 0.045
21,Q56A,0.212 ± 0.037
22,Q56G,0.005 ± 0.053
23,Q56T,0.047 ± 0.028
